Our source for the Km and kcat values is paper PMC7392888.

For the data set, the system named is O=C(Cc1cccs1)N[C@@H]1C(=O)N2C(C(=O)O)=C(/C=C/c3ccc([N+](=O)[O-])cc3[N+](=O)[O-])CS[C@H]12. The data set is described as follows: purified protein. The note with it: Zn2+ enzyme; steady-state buffer and pH not given here; King-Altman value from pre-steady-state data listed separately.

A word on the Km: it is the substrate concentration at which the rate is half of its maximum. As usually defined, the kcat is the number of substrate molecules converted per active site and unit of time at saturation.

Consider “MIM-1 (Novosphingobium pentaromativorans US6-1)”, for which the Km is reported as 41 ± 10 µM and the kcat is 17 ± 4 s⁻¹.

On to “SAM-1 (Simiduia agarivorans SA1 = DSM 21679)”, for which the Km was 20 ± 3 µM and the kcat came to 10 ± 5 s⁻¹.
